Laboratory results: the nanobody polyreactivity screen of Harvey et al. (2022)

Experiment: yeast display, Sf9 membrane polyspecificity reagent, FACS + sequencing; frameworks hold sequencing errors
Outline: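 In a synthetic yeast display library (Saccharomyces cerevisiae BJ5465), nanobody expression was induced with galactose for 36–48 hours. FACS gates were set low and high (top ~1%) using anti-HA fluorescence for expression and streptavidin fluorescence for binding of the Sf9 membrane reagent. Each polyreactivity label is drawn from the gate of origin.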

## QVQRVESGGGLGQAGGILLLSCAASGFTFKWYSMGWYRQARGKERELVAGISRRGGTTNYADSFKGRFTISRHNAKNTVNLQINSLKPEDPPVYYCAAESQLTKYYYWGQGTQVTVSS
  polyreactivity (PSR sort gate): high polyreactivity

## QVQLVESGGGLVQAGRSLRLSCAASGSIFSTNAMGWYTQAQGKEREFVAAIDITNYEDSVKGRFTISRDNSKNTVDFQMNSVIPEDTAVYSCIADTYSVVREGDYWGQGTQVTVSS
  polyreactivity (PSR sort gate): low polyreactivity

## QVQLVESGGGLVQAGGSLRLSCAASGSIFGYYAMVWKRQAPGKESELVAAMNYSGVSTYYADSVKGRFTISRDNAKNTVYLQMNSLKPEDSAVYYCARDIRRKGFRYDYWGQGTQVTVSS
  polyreactivity (PSR sort gate): high polyreactivity

## QVQLVESGGGLVQAGGSLRLSCAASGNIFVRYAMGWYRQAPGKERELVAAISRGGRTNYADSVKGRFTISRDNAKNTVYLQMNSLKPEDTAVYYCAADVRYHFYYWGQGTQVTVSS
  polyreactivity (PSR sort gate): high polyreactivity

## QVQLVESGAGLVQAGGSLRLSCAASGSTFGINAMGWYRQAHGKEREFVASISWSTGTKYYADSVKGRFTISRDNAKNTVYLQMNSLKAEDTAVYYCAAVCSRFYGLPRYYYCGQGTQVTVSS
  polyreactivity (PSR sort gate): high polyreactivity

## QVQLVESGGGLVQAGGSLRLSCAASGYTFGYYAMGWYRQAPGKERELVAAINYSGGRTYYADSVKGRFTISRDNAKNTVYLQMNSLKPEDTAVYYCNAKYGGWSKYWFPRDMDYWGQGTQVTVSS
  polyreactivity (PSR sort gate): low polyreactivity

## QVQLVESGGGLVQAGGSLRLICAASGFIFGHYAMGWYRQAPGNERELVAAISTGGDGTYYADSVKGRFTISRDNAKNTVYLQMNSLKPEDTAVYYCAVRHRASGILYYYWGQATQVTVSS
  polyreactivity (PSR sort gate): low polyreactivity

## QVQLVDSGGGLVQEGGSLRLRCAASGYTFDWYAMGWYRQAPGKERELVAAINSGGGTYYADSVKGRFTISRDNAKNSVYLQMNSLKPEDTAVYYCAKYTYDYWGQGTQVTVSS
  polyreactivity (PSR sort gate): low polyreactivity

## QVQLVESGGGLVQAGGSLRLSCAASGFTFQYYAMGWYRQAPGKERELVAAITRGDSTNYADSVKGRFTISRDNAKNTVYLQMNSLKPEDTAVYYCAKSVRYPASDYWGQGTQVTVSS
  polyreactivity (PSR sort gate): low polyreactivity

## QVQLVESGGGLVQAGGSLRLSCAASGSIIARYAMGWYRQSPGKERELVAAITCSATSTYYADSVKGRFTISRDYAKNTVYLQLNSLKPEDTAVYYWNAGASYFLVISQSRRDYWGQGTQVTVSS
  polyreactivity (PSR sort gate): low polyreactivity

## QVQLVESGGCLVQAGGSLSLSCAASGFTFSWNAMGWYRQAPGKERELVATITRSGSTYYADSVKGRFTISRDNAKNTVYLLMNSLKPEDTAVYYCAVVSWYRYSRYENDYWGQGTQVTVSS
  polyreactivity (PSR sort gate): high polyreactivity

## QVQLVESGGGLVQAGGTLRLSCAASGRTFDTNAMAWYRQAPGKERELVASITWVGGSTYYADSVKGRFTISRDNAKNTVYLQMNSLKPEDTAVYYCNRDRVSGGKYNYWGQGSQVTVSS
  polyreactivity (PSR sort gate): low polyreactivity

## QVQLVESGGGLVQAGGSLRLSCAASGLTFPKYAMGWYRQAPGKERELVAAITQRGGSTYYADSVKGRFTISRDNAKNTVYLQMNSLNPEDTAVYYSNARRRDYNNRREFDYWGQGTQVTVSS
  polyreactivity (PSR sort gate): high polyreactivity

## QVQLVESGGGLVQAGGSLRLSCAASGRTFNRYAMGWYRQAPGKERELVAVITGSGGAGTYYADSVKGRFTISRDNAKNTVYLQMNSLKPEDTAVYYCNAGGGFYGSTVEHDYWGQGTQVTVSS
  polyreactivity (PSR sort gate): low polyreactivity

## QVQLVESGGGLVQAGGSLRLSCAASGSTIKYYAMGWYRQAPGKDRELVAAINWSGDSTYYADSVKGRFTISRDNAKNTVYLQMHSLKPEETAVYYCAVRYQKRAYYGSNYWGQGTQVTVSS
  polyreactivity (PSR sort gate): high polyreactivity

## QVQLVESGGGLVQAGGSLRLSCAASGRIFRAYAMGWYRQAPGKERELVAAISSRGGSTYYADSVKGRFTISRDNAKNTVYLQMNSLKPEDTAVYYCNVDTPFREGSYDYWGQGTQVSVSS
  polyreactivity (PSR sort gate): high polyreactivity

## QVQLVESGGGLVQAGGSLRLSCAASGSTFPSYVMGWYRQAPGKEREMVAAISSSGGRTYYADSVKGRFTISRDNAKNTVYLQMNSLKPEDTAVYYCAAKRGPLVNDHQFWGQGTQVTVSS
  polyreactivity (PSR sort gate): high polyreactivity

## QFQLVESGGGLVQAGGSLRLSCAASGRIFDLNAMGWYRQAPGKERELVAAITWSGDSTYYADSVKGRITISRDNAKNTVYLQLNSLKPEDTAVYYCAAASRTSYSWVDYEFDYWGQGTQVTVSS
  polyreactivity (PSR sort gate): low polyreactivity

## QVQLVESGGGLVQAGGSLRLSCAASGFTFSKYVMGWYRQAPGKERELVAAISKRGGSTYYADSVKGRFTISRDNAKNTVYLQMNSLKPEDTAVYYCAARYYLEPILEMDYWGQGTQVTVSS
  polyreactivity (PSR sort gate): high polyreactivity

## QVQLVESGGGLVQAGGRLRLSCAASGRIFKDNAMGWYRQAPGKERELVAAISSGASTSYADSVKGRFTISRDNAKNTVYLQMNSLKPEDTAVYYCNRGGDLYYPGWLFDYWGQGTQVTVSS
  polyreactivity (PSR sort gate): low polyreactivity

## QVQLVESGGGLVQAGGSLRLSCAASGSIFTHNAMGWYRQAPGKERELVAAISTSGGRTYYADSVKGRFTISRDNAKNTVYLQMNSLKPEDTAVYYCAKLSTARYDYWGQGTQVTVSS
  polyreactivity (PSR sort gate): high polyreactivity

## QVQLVESGGGLVQAGGSLRLSCAASGNIFYTNAMGWYRQAPGKERELVAAISGSGGRTYYADSVKGRFTISRDNAKNTVYLQMNSLKPEDTAVYYCNAVRREYYDRTYGYWGQGTQVTVSS
  polyreactivity (PSR sort gate): low polyreactivity

## QVQLVESGGGLVQAGGSLRLSCAASGSTFEAYAMGWYRQGPGKERELVAAINFTGGRTYYADSVKGRFTISRDNAKNTVYLQMNSLKPEDTAVYYCAARKWGVPYIDNDYWGQGTQVTVSS
  polyreactivity (PSR sort gate): low polyreactivity

## QVQLVESGGGLVQAGGSLRLSCAASGITFYFYAMGWYRQAPWKERELVAAITSTGTSTYYADSVKGRFTISRDNAKNTVYLQMNILKPEDTAVYYCNVTDYHTLWYDPEYYWGQGTQVTVSS
  polyreactivity (PSR sort gate): low polyreactivity

## QVQLVESGGGLVQAGGSLRLSCAASGFILRGYDMGWYRQATGKERELVATITTGGSTYYADSVKGRFTISRDNAKNTVYLQMNSLKPEDTAVYYCAGRRRGSVGVGYANPYNYWGQGTQVTVSS
  polyreactivity (PSR sort gate): high polyreactivity

## QVQLVESGGGLVQAGGSLRLSCAASGRPFSSYAMGWYRQAPGKERELVARINSDGGRTYYADSVKGRFTISRDNAKDTVYLQMNSLKPEDTAVYYCAKRVVRGKVDYWGQGTQVTVSS
  polyreactivity (PSR sort gate): low polyreactivity

## QVQLVESGGGLVQSGGSLRLTCAASGSIIRYYTMGWYRQAPGKERELVATITQSGGSTYYADSVKGRFTISRDNAKNTVYLQINSLKPEDTAVYYCAALVRRGFRLYGSWGQGTQVTVSS
  polyreactivity (PSR sort gate): high polyreactivity

## QVQLVESGGGLVQAGGSLRLSCAASGYTFYRYTMGWYRQAPGKEREVVAAINSGGSTNYADSLKGRFTISRDNAKNTVYLQMNSLKPEDTAVYYCARRYQTWPRWYDYWGQGTQVTVSS
  polyreactivity (PSR sort gate): high polyreactivity

## QVQLVESGGGLVQAGGSLRLSCAGSGSTFDSYAMGWYRQAPGKERELVAAITRSDASTYYADSVKGRFTISRDNAKNTVYLQMNSLKPEDTAVYYCAADTSLVYYGGDWEYYYWGQGTQVTVSS
  polyreactivity (PSR sort gate): low polyreactivity

## QVQLVESGGCLVQAGGRLRLSCAASGRTFTGYTMGWYRQAPGKEREFVAAIRKSGGSTYYADSVKGRFTISRDNAKNTVYLQMNSLKPEDTAVYYCASRYRYYYTRYDYWGQGTQVTVSS
  polyreactivity (PSR sort gate): high polyreactivity

## QVQIVESGGGLVQAGGSLRLSCAASGSTFYYNTMGWYRQAPGKERELVAAISWRRVSTYYADSVKGRFTISRDIAKNTVYFQMNSLKPEDTAVYYCNAVHHYPEHIGGGYWGQGSQVTVSS
  polyreactivity (PSR sort gate): low polyreactivity

## QVQLVESGGGLVQAGGSLRLSCAASGSILHLYAMGWYRQAPGKERELVARINSGGTTNYADSVKGRFTISRDNAKNTVYLQMNSLKPEDTAVYYCAARFTPYITSDDGHYDYWGQGTQVTVSS
  polyreactivity (PSR sort gate): low polyreactivity

## QVQLVESGGGLVQAGGSLRLSCAASGSTFTLYVMGWYRQAPGKERELVAAISRGDTTNYADSVKGRFTISRDNAKNTVYLQMNSLKPEDTAVYYCAATYPTFFYWSKGYERDYWGQGTQVTVSS
  polyreactivity (PSR sort gate): low polyreactivity

## QVQLVESGGGLVQAGGSLRLSCAASGSTFRENDMGWYRQAPGKERELVAALTFSGGSTYADSVKGRFTISRDNAKNTVYLQMNSLKPEDTAVYYCSADTLPAEFDYDYWGQGTQVTVSS
  polyreactivity (PSR sort gate): low polyreactivity

## QVQLVESGGGLVQAGGSLRLSCAASGSTFPVYAMGWYRQAPGKERELVAAITSGGSTYYADSVKGRFTISRDNAKNTVYLQMNSLKPEDTAVYYCAAEDSSPAYNHWGQGTQVTVSS
  polyreactivity (PSR sort gate): low polyreactivity

## QVQLVESGGGLVQAGGSLRLSCAASGGIFERNDMGWYRQAPGKERELVAGISSVGSTNYADSVKGRFTISRDNAKNTVYLQMNSLKPEDTAVYYCAAGYSRAHDYWGQGTQVTVSS
  polyreactivity (PSR sort gate): low polyreactivity

## QVQLVVSGGGLVQAGGSLRLSCAASGSTFQYNAMGWYRQAPGKERELVAAISTGTSTYYADSVKGRFTISRDNAKNTVYLQLNSLKTEVTAVYYCAAEYWGDYTEYNYWGHGTQVTVSS
  polyreactivity (PSR sort gate): high polyreactivity

## QVQLVESGGGLVQAGGSLRLSCAASGSIFSVYAMGWYRQAPGKERELVATITWSGGRTYYADSVKGRFTISRDNAKNTVYLQMNSLKPEDTAVYYCAATSWWATTGFDYWGQGTQVTVSS
  polyreactivity (PSR sort gate): low polyreactivity

## QVQLVESGGGLVQAGGILRLSCAASGFILWYYTMGWSRQAPGKERELVAAISRGGTTYYADSVKGRFTISRDTAKNTVYLQMYSLKPEDTAVYYCNAPYNTHGIVLYDYWGQGTQVTVSS
  polyreactivity (PSR sort gate): low polyreactivity

## QVQLVESGGGLVQAGGSLRLSCAASGLTFQSNAMGWYRQAPGKEREFVAAITSGGNTYYADSVKGRFTISRDNAKNTVYLQMNSLKPEDTAVYYCNADYQDEEDDYWGQGTQVTVSS
  polyreactivity (PSR sort gate): low polyreactivity

## QVQLVESGGGLFQAGGSLRLSCAASGRIFSYNNMGWYRQAPGKERELVAAISTSGGSTYYADSVKGRFTLSRDNAKNTVYLQMNSLKPEDTAVYYCNTVWTFRTSTNYDYWGQVTQVTVSS
  polyreactivity (PSR sort gate): low polyreactivity

## QVQRVESGGGLVQAGGSLRLSCAASGFIITRYSMGWYRQAPGKEREMVAVINSSGGSTYYADSVKGRFTISRDTAKNTVYVQMNSLKPEDTAVYYCNALSRYRIWSYGYWGQGTQVTVSS
  polyreactivity (PSR sort gate): high polyreactivity

## QVQLVESGGGLVQAGRSLRLSCAASGSTFSHYAMGWYRQAPGKERELFATITGTGVRTYYADSVKGRFTISRDNAKNTVYLQMNSLKPEATAVYFCAVPPSIRGAQAQPWMDYWGQGTQVTVSS
  polyreactivity (PSR sort gate): low polyreactivity
